Results reported in publication PMC3212559, “Large-Scale Protein-Protein Interaction Analysis in Arabidopsis Mesophyll Protoplasts by Split Firefly Luciferase Complementation” (PLoS ONE, 2011).

Legend:
Test in all cases: split reporter (BiFC, NanoBiT); SFLC in living Arabidopsis mesophyll protoplasts: Aux/IAA-FLucN or MYB30-FLucN co-expressed with ARFCTD-FLucC or Aux/IAA-FLucC for 6 hr; 10 µg of each construct, 2×10^4 cells, 96-well plate, D-luciferin; relative activity standardised against ARF5CTD-FLucC + IAA28-FLucN
Conditions in all cases: partners not purified
[1] = target: T1, ARF4 C-terminal domain (CTD)-FLucC (Arabidopsis, UniProt Q9ZTX9 665-788)
T1 construct: Arabidopsis auxin response factor 4, C-terminal dimerization domain (CTD); In the ARF-ARF tests the same CTD stood both as ARFCTD-FLucC and as ARFCTD-FLucN; one molecule for both; also called ARF4CTD-FLucC; ARFCTD-FLucC; source: Arabidopsis mesophyll protoplasts, transfected, in living cells (SFLC) and in lysate (co-IP); not shown: FLucC (firefly luciferase aa 394-550)
T1 sequence (looked up): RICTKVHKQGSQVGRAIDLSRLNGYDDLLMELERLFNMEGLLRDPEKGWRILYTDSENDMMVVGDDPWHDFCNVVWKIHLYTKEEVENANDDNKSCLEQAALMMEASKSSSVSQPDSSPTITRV

[2] = target: T2, ARF6 C-terminal domain (CTD)-FLucC (Arabidopsis, UniProt Q9ZTX8 796-935)
T2 construct: In the ARF-ARF tests the same CTD stood both as ARFCTD-FLucC and as ARFCTD-FLucN; one molecule for both; also called ARF6CTD-FLucC; ARFCTD-FLucC; source: Arabidopsis mesophyll protoplasts, transfected, in living cells (SFLC) and in lysate (co-IP); not shown: FLucC (firefly luciferase aa 394-550)
T2 sequence (looked up): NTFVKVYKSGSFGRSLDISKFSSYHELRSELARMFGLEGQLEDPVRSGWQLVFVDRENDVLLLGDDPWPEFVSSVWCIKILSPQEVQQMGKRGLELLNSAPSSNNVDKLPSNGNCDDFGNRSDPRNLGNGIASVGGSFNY

IAA6-FLucC = target: T3, IAA6-FLucC (Arabidopsis, UniProt Q38824 1-189)
T3 construct: Arabidopsis Aux/IAA protein IAA6; also called Aux/IAA-FLucC; source: Arabidopsis mesophyll protoplasts, transfected, in living cells; not shown: FLucC (firefly luciferase aa 394-550)
T3 sequence (looked up): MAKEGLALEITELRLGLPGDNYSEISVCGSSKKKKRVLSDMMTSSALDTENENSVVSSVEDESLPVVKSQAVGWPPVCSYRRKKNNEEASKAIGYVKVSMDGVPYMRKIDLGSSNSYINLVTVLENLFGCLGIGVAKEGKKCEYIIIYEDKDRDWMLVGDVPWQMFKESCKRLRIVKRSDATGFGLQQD

Measured: relative luciferase activity (standardised against ARF5CTD-FLucC + IAA28-FLucN)

B1: MYB30-FLucN (natural protein, UniProt Q9SCU7 1-323, looked up)
chain: MVRPPCCDKGGVKKGPWTPEEDIILVTYIQEHGPGNWRAVPTNTGLLRCSKSCRLRWTNYLRPGIKRGNFTEHEEKMIVHLQALLGNRWAAIASYLPQRTDNDIKNYWNTHLKKKLNKVNQDSHQELDRSSLSSSPSSSSANSNSNISRGQWERRLQTDIHLAKKALSEALSPAVAPIITSTVTTTSSSAESRRSTSSASGFLRTQETSTTYASSTENIAKLLKGWVKNSPKTQNSADQIASTEVKEVIKSDDGKECAGAFQSFSEFDHSYQQAGVSPDHETKPDITGCCSNQSQWSLFEKWLFEDSGGQIGDILLDENTNFF
notes: transcription factor MYB30, the unrelated protein used as negative control; source: Arabidopsis mesophyll protoplasts, transfected, in living cells; not shown: FLucN (firefly luciferase aa 1-398)
< 0.1: [1] | [2] | IAA6-FLucC
